In general, Kd refers to the concentration at which binding is half-saturated. Higher therefore signals a looser complex. Broadly, the koff is the first-order rate constant of dissociation. A higher koff goes with a short-lived complex. In general, kon refers to a measure of how fast the partners come together.

The text below walks through data of patent publication US20260234247A1 (published 2026).

Residue numbers refer to the chain shown, from its start.

Sequences and labels used below:
B1: LK-RB1-16.h3 (antibody, human IgG4, kappa, V domains shown)
VH: QVQLQESGPGLVKPSETLSLTCTVSGFSLISNAISWIRQPPGKGLEWLGVIWGDGNTIYHSALRSRLTISKDTSKNQVFLKLSSVTAADTAVYYCAKANWDGYYFDYWGQGTTVTVSS
VL: DIQMTQSPSTLSASVGDRVTITCHASQSVDFWLNWYQQKPGKAPKLLISKASNLHTGVPSRFSGSGSGTEFTLTISSLQPDDFATYYCQQGQSYPLTFGQGTKLEIKR
notes: Humanized form of LK-RB1-16
B2: LK-RB2-1 (antibody, human IgG4 S228P, kappa, V domains shown)
VH: QIQLVQSGPELKKPGETVKISCKASGYTFTTYGMSWVKQAPGKGLKWMGWINTYSGVSTYADDFKGRFAFSLETSASTAYLQINNLKNEDTATYFCARRYDYDGYAMDYWGQGTSVTVSS
VL: DIVMSQSPSSLAVSVGEKVTMSCKSSQSLLFSSNQKNYLAWYQQKPGQSPKLLIYWASTRESGVPDRFTGRGSGTDFTLTISSVKTEDLAVYYCQQYDTYPPTFGGGTKLEIKR
B3: LK-RB2-23 (antibody, human IgG4 S228P, kappa, V domains shown)
VH: B2 VH with T53I, S58P, Y100G, A106Y, M107F, S115T, V116L
VL: NIVLIQSAATLSVTPGDSVSLSCRASQSLSNGLHWYQQKSHESPRLLIKYGSQSISGIPSRFSGSGSGTDFTLSINSVETEDFGMYFCQQSDSWPHTFGSGTKLEIKR
B4: LK-RB2-22 (antibody, human IgG4 S228P, kappa, V domains shown)
VH: B2 VH with P14T, T53I, S58P, Y100A, A106Y, M107F, S115T, V116L
VL: NIVMTQTPKFLLVSAGDRVTITCRASQSVTNDVAWYQQRPGQSLKLLIYYASNRYTGVPDRFTGSGYGTDFTFTISTVQAEDLAVYFCQQGYSSPFTFGSGTKLEIKR
B5: LK-RB2-6 (antibody, human IgG4 S228P, kappa, V domains shown)
VH: B2 VH with K46E, T53I, S58P, Y100G, G104S, Y105F, A106Y, M107F, S115T, V116L
VL: B2 VL with M21V, F31Y, S33Y, A57S, R71S, T86A, Y97C, D98Y, T99N, P102Y
B6: LK-RB2-13 (antibody, human IgG4 S228P, kappa, V domains shown)
VH: B2 VH with K46Q, S58P, Y60F, E73D, Y100I, D101N, Y102W
VL: B2 VL with I2S, F31Y, S33G, N37S, R71S, T86A, D98Y, T99S, P102Y
B7: LK-RB2-17 (antibody, human IgG4 S228P, kappa, V domains shown)
VH: QIQLVQSGPELKKPGETVKISCKASGYTFTNYGMSWVKQAPGKGLQWMGWINTYSGVPTFADDFRGRFAFSLDTSASTAYLQINSLKNEDTAAYFCARRINWDGYAMDYWGQGTSVTVSS
VL: DSVMSQSPSSLAVSVGEKVTLSCKSSQSLLYSGNQKSYLAWYQQKPGQSPKLLIYWASSRESGVPDRFTGSGSGTDFTLTISSVKAEDLAVYYCQQYYSFPYTFGGGTKLEIKR
B8: LK-RB2-3 (antibody, human IgG4 S228P, kappa, V domains shown)
VH: QLQLQQSDAELVKPGASVKISCKVSGYSFTDHTIHWMKQRPEQGLEWIGYIYPRDGSTKENEKFTGKATLTADKSSSTAYMQLTSLTSEDSAVYFCTGSGFDYWGQGTSLTVSS
VL: DIKMTQSPSSMYASLGERVTITCKASQDIKSYLSWFQQKPGKSPKTLIYRANRLVDGVPSRFSGSGSGQDYSLTINSLEYEDMEIYYCLQYDEFPYTFGGGTKLEIKR
B9: LK-RB2-12 (antibody, human IgG4 S228P, kappa, V domains shown)
VH: QIQLVQSGPELKKPGETVKISCKASGYTFTTYGMSWVKQTPGKGLKWMGWINIYSGVPTYADDFKGRFVFSLEISASTAHLQINNLKNEDTATYFCARRKDYSGHCFDYWGQGTTLTVSS
VL: DIVLTQSPASLAVSPGQRATISCRASESVDTYGISFMHWYQQKPGQPPKLLIYRASNLESGIPARFSGSGSRTDFTLTINPVETDDVAIYYCQQSKKDPYTFGGGTKLEIKR
B10: LK-RB2-45 (antibody, human IgG4 S228P, kappa, V domains shown)
VH: B9 VH with K46Q, I53V, V69A, I74A, H80Y, T93S, K100G, S103D, C106Y
VL: DIVMTQSPATLSVTPGDRVSLSCRASQSISDYLNWYQQKSHESPRLLIKYVSQSISGIPSRFSGSGSGSDFTLSINSVEPEDIGVYYCQNGHNFPLTFGGGTKLELKR
B11: LK-RB2-15 (antibody, human IgG4 S228P, kappa, V domains shown)
VH: B9 VH with T40A, I53V, V69A, H80Y, N88D
VL: B9 VL with P15L, I21F, I89T, D98E
B12: LK-RB2-14 (antibody, human IgG4 S228P, kappa, V domains shown)
VH: QVQLKQSGPGLVQPSQSLSITCTVSGFSLTSYGVHWVRQSPGKGLEWLGVIWRGGSTDYNAAFMSRLSITKDNSKSQVFFKMNSLQADDTAIYYCAKNEGDSTVVAWYFDVWGTGTTVTVSS
VL: DIQMTQTTSSLSASLGDRVTISCSASQGISNYLNWFQQKPDGTVKLLIYYTSSLHSGVPSRFSGSGSGTDYSLTISNLEPEDIATYYCQQYSKLPLTFGAGTKLELKR
B13: LK-RB2-33 (antibody, human IgG4 S228P, kappa, V domains shown)
VH: EVQLQQSGVELVRPGALVKLSCKASGFNIKDYYMHWVKQRPEQGLEWIGWIDPEKGDTIYGPKFQGKASITADTSSNTAYLQLSSLTSEDTAVYYCSRGPNYGSSYAFAYWGQGTLVTVSA
VL: DVVMTQSHKFMSTSVGDRVTITCKASQDVSNAVAWYQQKPGQSPKLLIYSASYRYTGVPDRFTGSGSGTDFTFTISSMQAEDLAVYYCQQHYSLPWTFGGGTKLEIKR
B14: LK-RB2-21 (antibody, human IgG4 S228P, kappa, V domains shown)
VH: EVQLVESGGDLVKPGGSLKLSCAASGFTFSSYGMSWVRQTPDKRLEWVATISSGGSYTYYPDSLKGRFTISRDNAKSTLYLQMSSLKSEDTAKYYCARPYYDYIFYAIDYWGQGTSVTVSS
VL: DIQMNQSPSSLSASLGDTITITCHASQNINVWLSWYQQKPGNIPKLLIYKASNLHTGVPSRFSGSGSGTGFTLTISSLQPEDIATYYCQQGQSYPLTFGGGTKLEIKR
B15: LK-RB2-2 (antibody, human IgG4 S228P, kappa, V domains shown)
VH: DVKLEESGEGLVKPGGSLKLSCAASGFTFSSYAMSWVRQTPEKRLEWVAYISSGGDYFHYADTVKGRFTISRDNARNTLYLQMSSLKSEDTAMYYCTREGAHYDSSYLAWFAHWGQGTLVTVSA
VL: DIQMTQSPASLSVSVGETVTITCRASENIYSNLAWYQQRQGKSPQLLVYAATNLADGVPSRFSGSGSGTQYSLKINSLQSEDFGSYYCQQFWDNPLTFGAGTKLELKR
B16: LK-RB2-18 (antibody, human IgG4 S228P, kappa, V domains shown)
VH: EVQLQQSGPELVKPGTSVKISCKASGYTFTDYYMNWVKQSHGKSLEWIGDINPNNGGTSYNQKFKGKATLTVDKSSSTAYMELRSLTSEDSAVFYCARSGTTVVGTYWYFDVWGTGTTVTVSS
VL: B15 VL with R39K, A50G, Q90H, N94T, L96F, A100S, L106I
B17: LK-RB2-9 (antibody, human IgG4 S228P, kappa, V domains shown)
VH: DVQLQESGPGLVKPSQSLSLTCSVTGYSITSGYYWNWIRQFPGNKLEWMGYIGYDGNNNYNPSLKNRISITRDTSKNQFFLKLNSLTTEDTATYYCAREGSTMVTSWFAYWGQGTLVTVSA
VL: B15 VL with R39K, A50G, S65R, G68D, Q90H, N94T, L96Y, A100G, L106I
B18: LK-RB2-7 (antibody, human IgG4 S228P, kappa, V domains shown)
VH: B15 VH with E5V, K43M, Y57H, H59Y, N77S, H102S, S106N, Y107F, H113Y
VL: B15 VL with R39K, Q40E, A50G, Q90N, N94I
B19: LK-RB2-20 (antibody, human IgG4 S228P, kappa, V domains shown)
VH: QVQLKQPGAERVKPGASVKMSCKASGYTFTRYWITWVKQRPGQGLEWIGDIYPGSATTNYNEKFKSKATLTEDTSSSTAYMQLSSLTSEDSAVYYCARSGDYSNSNYAMDYWGQGTSVTVSS
VL: NIEMTQSPKSMSMAVGERVTLSCKASENVGTYVSWYQQKPEQSPKLLIYGASNRNTGVPDRFTGSGSATDFTLTISSVQAEDLADYHCGQSYSYPFTFGSGTKLEIKR
B20: LK-RB2-4 (antibody, human IgG4 S228P, kappa, V domains shown)
VH: EVQLVESGGDLVKPGGSLKLSCAASGFTFSNYGMSWVRQTPDKRLEWVATISSGGSYTFYPDSVKGRFTISRDNAKNTLYLQMSSLKSEDTALYYCARDYYYGKTIEGYFDYWGQGTTLTVSS
VL: DIQMTQTTSSLSASLGDRVTISCRANQDISNYLNWYQQKPDGTVKLLIYYTSRLHSGVPSRFSGSGSGTDYSLTISDLEQEDIATYFCQQGNTLPWTFGGGTKLEIKR
B21: LK-RB2-19 (antibody, human IgG4 S228P, kappa, V domains shown)
VH: QVQLQQPGAELVKPGASVKLSCKASGYTFTSYWMHWVKQRPGQGLEWIGMIHPNSGGTNYNEKFKSKATLTVDKSSSTAYMQFSSLTSEDSAVYYCARCTVVALYYALDYWGQGTSVTVSS
VL: QIVLSQSPAILSASPGEKVTMTCRATSRVSYIHWFQQKPGSSPKPWIYVTSNLASGVPARFSGSGSGTSYSLTISKLEAEDVATYYCQQWSTNPLTFGAGTKLELKR
B22: LK-RB2-35 (antibody, human IgG4 S228P, kappa, V domains shown)
VH: EVQLQQSGPELVKPGASVKISCKASGYTFTDYNMHWVKQSHGKSLEWIGSIYPYNGGSDYNQKFKSKATLTVDNSSSTAYMELRSLTSEDSAVYYCASELTGLYAMDYWGQGTSVTVSS
VL: B10 VL with N34H, V51A, I83V, N90T, N93S, L96Y, L106I

The target of the first assay is T1, human LILRB1-his (human, UniProt Q8NHL6 24-458, limits assumed).
T1 construct: Analyte of the Biacore run; not shown: His tag
T1 sequence (Q8NHL6 24-458 limits assumed): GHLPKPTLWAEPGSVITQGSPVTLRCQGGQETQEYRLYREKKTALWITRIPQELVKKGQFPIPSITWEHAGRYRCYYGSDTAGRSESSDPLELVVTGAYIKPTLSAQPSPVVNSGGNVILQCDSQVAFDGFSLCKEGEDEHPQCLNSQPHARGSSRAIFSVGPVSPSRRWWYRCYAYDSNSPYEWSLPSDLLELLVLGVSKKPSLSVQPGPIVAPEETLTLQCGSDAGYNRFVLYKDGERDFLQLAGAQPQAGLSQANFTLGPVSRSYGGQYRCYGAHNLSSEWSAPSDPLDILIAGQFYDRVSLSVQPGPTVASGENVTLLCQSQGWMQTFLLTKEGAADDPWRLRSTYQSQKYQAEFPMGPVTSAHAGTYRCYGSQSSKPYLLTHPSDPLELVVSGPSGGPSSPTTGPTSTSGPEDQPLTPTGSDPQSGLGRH
In words: SPR (Biacore 8K), antibody captured via Fc, LILRB1-his as analyte, 1:1 model. For orientation: SPR reads the build-up and loss of mass on a sensor chip optically.
Regarding B1, binding was characterised by a dissociation constant (Kd) of 0.24 nM, the dissociation rate constant (koff) turned out to be 0.000107 s⁻¹ and the kon was 444000 M⁻¹ s⁻¹.

The next assay deals with T2, human LILRB2 (human, UniProt Q8N423 22-460, limits assumed).
T2 construct: also called hLILRB2
T2 sequence (Q8N423 22-460 limits assumed): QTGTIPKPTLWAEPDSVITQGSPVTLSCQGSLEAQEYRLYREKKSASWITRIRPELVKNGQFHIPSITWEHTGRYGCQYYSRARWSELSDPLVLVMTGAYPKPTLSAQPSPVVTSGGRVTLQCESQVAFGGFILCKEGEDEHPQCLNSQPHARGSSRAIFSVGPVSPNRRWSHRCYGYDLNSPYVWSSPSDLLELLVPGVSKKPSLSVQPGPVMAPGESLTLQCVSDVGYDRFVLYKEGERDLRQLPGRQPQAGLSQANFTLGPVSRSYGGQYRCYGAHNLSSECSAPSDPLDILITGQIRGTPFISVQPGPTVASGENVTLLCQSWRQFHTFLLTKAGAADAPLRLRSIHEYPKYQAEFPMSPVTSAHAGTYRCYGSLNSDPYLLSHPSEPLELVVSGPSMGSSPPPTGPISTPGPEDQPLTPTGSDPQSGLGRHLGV
In words: Octet off-rate ranking.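 Note: antibody dissociation rate constants against cynomolgus LILRB2 plus human LILRB1, LILRB2, LILRA1 and LILRA2, measured on an Octet instrument to rank binding.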 Background: BLI is a label-free optical method that tracks binding on a fibre tip over time.
From the text: Binding affinity of anti-LILRB1 and anti-LILRB2 antibodies against human LILRB1, LILRB2, LILRA1, LILRA2 and cynomolgus LILRB2 was ranked by measuring dissociation rate constant (Kdis) using the Octet system.
Molecule B2 came in with a dissociation rate constant (koff) of 0.00341 s⁻¹.

On to B3, for which the koff came out at 0.000876 s⁻¹.

B4 returned a koff of 0.00126 s⁻¹. The koff values of the last two molecules are within 1.5-fold of each other.

As to B5, the dissociation rate constant (koff) was 0.00167 s⁻¹.

In turn, B6 came in with a koff of 0.00304 s⁻¹. This koff lies about 1.8-fold higher than the previous one.

In turn, B7 gave a koff of 0.000926 s⁻¹.

B8 gave an off-rate (koff) of 3.91e-05 s⁻¹.

Take B9: the koff worked out at 0.000662 s⁻¹.

Molecule B10 registered a koff of 8.84e-05 s⁻¹.

In the case of B11, the off-rate (koff) came to 6.22e-05 s⁻¹. This koff and that of the molecule before are within 1.5-fold of each other.

Consider B12, for which the off-rate constant (koff) turned out to be 0.000302 s⁻¹. This koff is about 4.9-fold higher than that of the molecule before.

With B13, the off-rate (koff) stood at 0.00139 s⁻¹. Compared with the last molecule, the koff is about 4.6-fold higher.

B14 returned a koff of 0.000966 s⁻¹.

Consider B15, for which the off-rate constant (koff) was determined as 0.000757 s⁻¹.

Molecule B16 yielded a koff of 0.000174 s⁻¹.

For B17, the koff turned out to be 0.00135 s⁻¹. This koff is about 7.8-fold higher than that of the molecule before.

On to B18, for which the koff was 0.0014 s⁻¹.

In turn, B19 had a koff of 0.000895 s⁻¹.

For B20, the dissociation rate constant (koff) is 0.000157 s⁻¹.

In turn, B21 displayed a koff of 0.002 s⁻¹.

B22 returned a koff of 0.0012 s⁻¹.
